Positions count from the first letter of the chain named. Names may count otherwise.
B1: Cys-mutant of HspB8 (C10S/C99S/C195S/N138C) (natural protein, human, UniProt Q9UJY1 1-196, looked up)
chain: MADGQMPFSSHYPSRLRRDPFRDSPLSSRLLDDGFGMDPFPDDLTASWPDWALPRLSSAWPGTLRSGMVPRGPTATARFGVPAEGRTPPPFPGEPWKVSVNVHSFKPEELMVKTKDGYVEVSGKHEEKQQEGGIVSKCFTKKIQLPAEVDPVTVFASLSPEGLLIIEAPQVPPYSTFGESSFNNELPQDSQEVTST
notes: HspB8, human, with the four mutations C10S/C99S/C195S/N138C; single Cys in the β7 strand at the position homologous to Cys137 of HspB1; also called HspB8 Cys; HspB8 Cys^Ox
B2: Cys-mutant of HspB6 (C46S/E116C) (natural protein, human, UniProt O14558 1-160, looked up)
chain: MEIPVPVQPSWLRRASAPLPGLSAPGRLFDQRFGEGLLEAELAALSPTTLAPYYLRAPSVALPVAQVPTDPGHFSVLLDVKHFSPEEIAVKVVGEHVEVHARHEERPDEHGFVARCFHRRYRLPPGVDPAAVTSALSPEGVLSIQAAPASAQAPPPAAAK
notes: HspB6, human, with the double mutation C46S/E116C; single Cys in the β7 strand at the position homologous to Cys137 of HspB1; also called HspB6 Cys; HspB6 Cys^Ox
B3: wild-type HspB6 (natural protein, human, UniProt O14558 1-160, looked up)
chain: B2 chain with S46C, C116E
notes: HspB6, human, full-size wild type; The abstract says that the wild-type HspB6 was used in the ELISA
B4: recombinant human small heat shock protein HspB7 (cvHsp), wild type, untagged (natural protein)
chain: not shown
notes: HspB7 (cvHsp), human; full copy recloned from Addgene #63108 into pET23b(+) at NdeI and XhoI; single Cys126; calculated monomer weight 18.6 kDa; HspB7-D (small oligomers, probably dimers) and HspB7-L (mostly large oligomers) are two oligomeric preparations of the same construct; the assays tell them apart; also called cardiovascular Hsp; HspB7-D; source: E. coli Rosetta2 (DE3) pLysS, purified …
B5: HspB7 with Cys126 modified by iodoacetamide (natural protein)
chain: not shown
modifications: Cys126 modified by iodoacetamide
notes: HspB7 (cvHsp), human; full copy from Addgene #63108 in pET23b(+); the single SH group (Cys126) modified by iodoacetamide; Same construct as m1, chemically modified at Cys126; also called SH Mod HspB7-L
B6: Δ13 mutant of HspB7 (lacking the first 13 residues) (domain or fragment)
chain: not shown
notes: HspB7 (cvHsp), human, lacking the first 13 residues; made by PCR from the pET23b(+) HspB7 plasmid (forward primer with an NdeI site, ATG before the codon of residue 14); The printed forward primer places a start codon (Met) directly before residue 14; source: E. coli Rosetta2 (DE3) pLysS, purified
B7: ΔSer mutant of HspB7 (lacking the polySer sequence, residues 17–29) (natural protein)
chain: not shown
notes: source: E. coli Rosetta2 (DE3) pLysS, purified

Experiments:
[1] = biological target: the molecule itself; assay: cross-linking; disulfide cross-linking: reduced proteins alone or in equimolar mixture (15 µM each), 1 h at 42 °C, dialysed overnight at 37 °C against 50 mM Tris-HCl pH 8.0, 50 mM KCl, 0.1 mM PMSF; read by SDS-PAGE (HspB8) or urea gel electrophoresis (HspB6)
[2] = biological target: B4; assay: SEC; oxidised (disulfide cross-linked) proteins alone or in equimolar mixture on Superdex 200 Increase GL 10/300; profile of the mixture compared with the arithmetic sum of the isolated proteins; conditions: both partners purified
[3] = biological target: B4; assay: ELISA; sandwich: plate coated with monoclonal mouse anti-HspB6 antibody (clone 20-6) as capture; HspB6, HspB7 or their equimolar mixture added (25-400 ng of each protein per well), 1 h; HspB7 detected by rabbit polyclonal anti-HspB7 and HRP-conjugated anti-rabbit antibodies; conditions: both partners purified
[4] = biological target: the molecule itself; assay: SEC; HspB7-D preparation (flow-through of phenyl sepharose, Fraction 1); analytical Superdex 200 Increase 10/30 GL, 50 mM phosphate pH 7.4, 150 mM NaCl; 20, 50 or 100 μg loaded
[5] = biological target: the molecule itself; assay: SEC; HspB7-L (0.6 mg/mL) reduced with 3 mM DTT, Cys126 modified with 8 mM iodoacetamide, then analytical SEC on Superdex 200 Increase
[6] = biological target: the molecule itself; assay: SEC; Δ13 and ΔSer deletion mutants of HspB7; analytical Superdex 200 Increase 10/30 GL, 50 mM phosphate pH 7.4, 150 mM NaCl

B1: binds [1].

B2: binds [2]; binds [1].

B3: binds [3].

In the case of B4, the “stoichiometry N” value [4] is reported as roughly 2.

B5: binds [5].

B6: binds [6].

B7: binds [6].
